Experimental data: the supplement of paper PMC9732359
± gives the uncertainty stated by the source.

Experiment: protein stability index of a GFP-peptide fusion (yeast GPS) (PSI 1-4); higher = more stable; sorted into four equal gates, so the index is relative within each strain
How it was run: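 Sequencing reads from sorted gates were used to score each peptide. The library consisted of tiled 17-residue yeast protein peptides fused downstream of GFP on a Cherry-expressing plasmid, pooled and carried in yeast. Mid-log cultures in leucine-free medium were split into four equal gates by GFP/Cherry ratio, and each gate's plasmids were PCR-amplified and Illumina-sequenced. The protein stability index adds up, over all gates, the read frequency multiplied by the gate number.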

## GISSTLVSANNDNNSPH [YLR018C/POM34]
doa10∆
  protein stability index: 2.62 ± 0.051
pdr5∆
  protein stability index: 2.89 ± 0.06
san1∆
  protein stability index: 3.01 ± 0.058
ubr1∆
  protein stability index: 2.96 ± 0.067

## IVDGKLKTEKIFKEINE [FAS1]
doa10∆
  protein stability index: 1.76 ± 0.074
pdr5∆
  protein stability index: 1.85 ± 0.13
san1∆
  protein stability index: 1.91 ± 0.11
ubr1∆
  protein stability index: 1.91 ± 0.091

## VMMDVDSSGVNDLHHSE [RPN3]
doa10∆
  protein stability index: 3.34 ± 0.082
pdr5∆
  protein stability index: 3.31 ± 0.076
san1∆
  protein stability index: 3.35 ± 0.066
ubr1∆
  protein stability index: 3.19 ± 0.054

## KISNSKLLSLLRSKTSA [SIR4]
doa10∆
  protein stability index: 2.19 ± 0.058
pdr5∆
  protein stability index: 2.45 ± 0.044
san1∆
  protein stability index: 2.3 ± 0.08
ubr1∆
  protein stability index: 2.29 ± 0.055

## VKNLSLMSCISVGTDPM [RPB2]
doa10∆
  protein stability index: 1.88 ± 0.067
pdr5∆
  protein stability index: 1.67 ± 0.061
san1∆
  protein stability index: 2.48 ± 0.058
ubr1∆
  protein stability index: 2.43 ± 0.063

## SPKPYAVKYGLNHVVAL [RPL8A]
doa10∆
  protein stability index: 2.22 ± 0.066
pdr5∆
  protein stability index: 2.42 ± 0.06
san1∆
  protein stability index: 2.44 ± 0.071
ubr1∆
  protein stability index: 2.08 ± 0.044

## KNTELSYDFLPLSNIKA [RPN12]
doa10∆
  protein stability index: 3.13 ± 0.075
pdr5∆
  protein stability index: 2.85 ± 0.074
san1∆
  protein stability index: 3.08 ± 0.086
ubr1∆
  protein stability index: 3.09 ± 0.068

## VDGMAKVPIGLILQRLK [RGR1]
doa10∆
  protein stability index: 2.51 ± 0.1
pdr5∆
  protein stability index: 2.67 ± 0.091
san1∆
  protein stability index: 2.22 ± 0.15
ubr1∆
  protein stability index: 2.49 ± 0.057

## ETLSIFTNVPLNLEQVT [YJL039C/NUP192]
doa10∆
  protein stability index: 2.33 ± 0.044
pdr5∆
  protein stability index: 2.53 ± 0.049
san1∆
  protein stability index: 2.33 ± 0.055
ubr1∆
  protein stability index: 2.42 ± 0.044

## QLTPQQQQLVNQMKVAP [GAL11]
doa10∆
  protein stability index: 2.8 ± 0.061
pdr5∆
  protein stability index: 2.98 ± 0.058
san1∆
  protein stability index: 3.01 ± 0.061
ubr1∆
  protein stability index: 2.79 ± 0.049

## YNIELPLPPRIDPSVTM [RPT1]
doa10∆
  protein stability index: 2.44 ± 0.21
pdr5∆
  protein stability index: 2.73 ± 0.088
san1∆
  protein stability index: 2.47 ± 0.12
ubr1∆
  protein stability index: 1.95 ± 0.083

## LAIKDSKKRFAAIWTLC [RPO21]
doa10∆
  protein stability index: 1.9 ± 0.045
pdr5∆
  protein stability index: 1.92 ± 0.045
san1∆
  protein stability index: 1.8 ± 0.072
ubr1∆
  protein stability index: 2.1 ± 0.036

## GRRLNIRQYALATAHIY [SSN8]
doa10∆
  protein stability index: 1.53 ± 0.055
pdr5∆
  protein stability index: 1.32 ± 0.057
san1∆
  protein stability index: 1.17 ± 0.17
ubr1∆
  protein stability index: 1.09 ± 0.067

## TMQPPYIQERLKSLNDI [MED11]
doa10∆
  protein stability index: 2.89 ± 0.086
pdr5∆
  protein stability index: 2.86 ± 0.12
san1∆
  protein stability index: 3.13 ± 0.068
ubr1∆
  protein stability index: 2.82 ± 0.056

## TCSYVEEAGSPLVYRHE [RPB9]
doa10∆
  protein stability index: 3.06 ± 0.13
pdr5∆
  protein stability index: 2.92 ± 0.15
san1∆
  protein stability index: 3.28 ± 0.11
ubr1∆
  protein stability index: 2.75 ± 0.28

## SMDTKKKHKQKKVLEID [BRN1]
doa10∆
  protein stability index: 3.36 ± 0.063
pdr5∆
  protein stability index: 3.32 ± 0.057
san1∆
  protein stability index: 3.32 ± 0.039
ubr1∆
  protein stability index: 3.33 ± 0.044

## YNRHKLQELIVNGPNVH [RPO31]
doa10∆
  protein stability index: 1.19 ± 0.11
pdr5∆
  protein stability index: 1.48 ± 0.1
san1∆
  protein stability index: 1.2 ± 0.17
ubr1∆
  protein stability index: 1.22 ± 0.095

## AVRLILPGELAKHAVSE [HTB1]
doa10∆
  protein stability index: 3.23 ± 0.095
pdr5∆
  protein stability index: 2.98 ± 0.064
san1∆
  protein stability index: 1.52 ± 0.17
ubr1∆
  protein stability index: 3.28 ± 0.064

## DLVLQILEDTATMSVFL [RRI2]
doa10∆
  protein stability index: 2.86 ± 0.063
pdr5∆
  protein stability index: 2.36 ± 0.055
san1∆
  protein stability index: 2.98 ± 0.054
ubr1∆
  protein stability index: 2.71 ± 0.038

## SNPQHIIQPFLDNSKMD [RGR1]
doa10∆
  protein stability index: 2.91 ± 0.062
pdr5∆
  protein stability index: 2.98 ± 0.075
san1∆
  protein stability index: 2.53 ± 0.077
ubr1∆
  protein stability index: 2.86 ± 0.034

## LWDIMGDRQRLGEEHPL [RPT1]
san1∆
  protein stability index: 3.31 ± 0.23

## GTQQSNMYTSTQKTELE [SIR4]
doa10∆
  protein stability index: 2.96 ± 0.049
pdr5∆
  protein stability index: 3.12 ± 0.047
san1∆
  protein stability index: 2.95 ± 0.048
ubr1∆
  protein stability index: 3 ± 0.053

## NTEITQKSSKENIENEE [ECM29]
doa10∆
  protein stability index: 3.05 ± 0.082
pdr5∆
  protein stability index: 3.28 ± 0.087
san1∆
  protein stability index: 2.76 ± 0.078
ubr1∆
  protein stability index: 2.94 ± 0.09

## PSVNDFVIGVIIGTFSD [RRP40]
doa10∆
  protein stability index: 1.64 ± 0.06
pdr5∆
  protein stability index: 2.51 ± 0.07
san1∆
  protein stability index: 2.15 ± 0.077
ubr1∆
  protein stability index: 2.56 ± 0.084

## EKAIPKDQRATTPYMTK [RPO26]
doa10∆
  protein stability index: 2.85 ± 0.043
pdr5∆
  protein stability index: 2.98 ± 0.047
san1∆
  protein stability index: 2.97 ± 0.046
ubr1∆
  protein stability index: 3.03 ± 0.044

## ALPRKLRRRTASHNVRR [POP1]
doa10∆
  protein stability index: 2.91 ± 0.058
pdr5∆
  protein stability index: 3.06 ± 0.06
san1∆
  protein stability index: 2.79 ± 0.056
ubr1∆
  protein stability index: 2.74 ± 0.039

## VRFIGDSVAAIGIPVNK [QCR2]
doa10∆
  protein stability index: 2.83 ± 0.13
pdr5∆
  protein stability index: 2.52 ± 0.16
san1∆
  protein stability index: 2.4 ± 0.14
ubr1∆
  protein stability index: 3.02 ± 0.2

## IQRTRERKKSIGSQRGR [DSN1]
doa10∆
  protein stability index: 2.94 ± 0.077
pdr5∆
  protein stability index: 2.5 ± 0.063
san1∆
  protein stability index: 2.56 ± 0.061
ubr1∆
  protein stability index: 2.91 ± 0.069

## AEEEEESDDDMGFGLFD [RPP0]
doa10∆
  protein stability index: 3.36 ± 0.09
pdr5∆
  protein stability index: 2.96 ± 0.12
san1∆
  protein stability index: 3.24 ± 0.046
ubr1∆
  protein stability index: 3.25 ± 0.065

## KGDRALLVKLSKRLPLR [BRR2]
doa10∆
  protein stability index: 2.47 ± 0.047
pdr5∆
  protein stability index: 2.57 ± 0.042
san1∆
  protein stability index: 2.34 ± 0.094
ubr1∆
  protein stability index: 2.57 ± 0.042

## RLQAKRLKDVEWVKLHR [RMP1]
doa10∆
  protein stability index: 2.97 ± 0.069
pdr5∆
  protein stability index: 3.09 ± 0.076
san1∆
  protein stability index: 3.15 ± 0.056
ubr1∆
  protein stability index: 2.03 ± 0.062

## KQTAAYRTPGSSGVLSS [SSN2]
doa10∆
  protein stability index: 2.88 ± 0.063
pdr5∆
  protein stability index: 3.04 ± 0.063
san1∆
  protein stability index: 2.87 ± 0.077
ubr1∆
  protein stability index: 2.88 ± 0.045

## MCVSKGNASLKYIALQV [YCG1]
doa10∆
  protein stability index: 2.54 ± 0.099
pdr5∆
  protein stability index: 2.02 ± 0.077
san1∆
  protein stability index: 1.48 ± 0.12
ubr1∆
  protein stability index: 2.6 ± 0.084

## VMEIGKDAEYLRNYLTP [PUP1]
doa10∆
  protein stability index: 2.85 ± 0.076
pdr5∆
  protein stability index: 2.85 ± 0.096
san1∆
  protein stability index: 2.77 ± 0.086
ubr1∆
  protein stability index: 2.85 ± 0.12

## SSETDDDHSQVINPQQL [DSN1]
doa10∆
  protein stability index: 2.99 ± 0.048
pdr5∆
  protein stability index: 3.13 ± 0.05
san1∆
  protein stability index: 2.99 ± 0.044
ubr1∆
  protein stability index: 3.08 ± 0.048

## TAAQVANVELTPSNIRS [RPC34]
doa10∆
  protein stability index: 2.79 ± 0.1
pdr5∆
  protein stability index: 2.82 ± 0.071
san1∆
  protein stability index: 2.8 ± 0.085
ubr1∆
  protein stability index: 2.87 ± 0.093

## QLWLNSSGDFDDNNNNN [GRR1]
doa10∆
  protein stability index: 3.19 ± 0.076
pdr5∆
  protein stability index: 3.16 ± 0.07
san1∆
  protein stability index: 3.17 ± 0.1
ubr1∆
  protein stability index: 3.06 ± 0.055

## MNRRKIAMPKRRMAFKP [YLR335W/NUP2]
doa10∆
  protein stability index: 2.71 ± 0.076
pdr5∆
  protein stability index: 2.35 ± 0.14
san1∆
  protein stability index: 2.91 ± 0.071
ubr1∆
  protein stability index: 3.13 ± 0.13

## YIHRIGRTGRAANEGTA [PRP28]
doa10∆
  protein stability index: 3.1 ± 0.11
pdr5∆
  protein stability index: 3.29 ± 0.1
san1∆
  protein stability index: 3.26 ± 0.053
ubr1∆
  protein stability index: 3.29 ± 0.071

## MTTTIGSPQMLANEERL [RGR1]
ubr1∆
  protein stability index: 2.63 ± 0.25

## KVTKIWSKESNYDCKVI [PRP28]
doa10∆
  protein stability index: 2.93 ± 0.1
pdr5∆
  protein stability index: 2.47 ± 0.059
san1∆
  protein stability index: 2.61 ± 0.051
ubr1∆
  protein stability index: 2.97 ± 0.058

## AGEFGLKNKREIYRISF [RPS9B]
doa10∆
  protein stability index: 2.56 ± 0.065
pdr5∆
  protein stability index: 2.94 ± 0.091
san1∆
  protein stability index: 3.08 ± 0.14
ubr1∆
  protein stability index: 2.77 ± 0.066

## NVDVCVMEIGKDAEYLR [PUP1]
doa10∆
  protein stability index: 2.84 ± 0.068
pdr5∆
  protein stability index: 2.73 ± 0.063
san1∆
  protein stability index: 2.7 ± 0.066
ubr1∆
  protein stability index: 2.39 ± 0.051

## AEHKYMPYTINELLEMV [BRR2]
doa10∆
  protein stability index: 2.92 ± 0.083
pdr5∆
  protein stability index: 3.04 ± 0.092
san1∆
  protein stability index: 2.53 ± 0.068
ubr1∆
  protein stability index: 2.65 ± 0.043

## IDVMKSQIIPLMKKACY [SNU114]
doa10∆
  protein stability index: 2.23 ± 0.094
pdr5∆
  protein stability index: 2 ± 0.051
san1∆
  protein stability index: 2.77 ± 0.047
ubr1∆
  protein stability index: 2.08 ± 0.05

## RMNTIITHPGKMELVYV [SIR4]
ubr1∆
  protein stability index: 1.21 ± 0.24

## VNGSITDQLIQNIETRQ [NUT1]
doa10∆
  protein stability index: 3.22 ± 0.079
pdr5∆
  protein stability index: 3.01 ± 0.092
san1∆
  protein stability index: 3.05 ± 0.071
ubr1∆
  protein stability index: 3.15 ± 0.042

## GVDDQILATNSLRILAK [YJL039C/NUP192]
doa10∆
  protein stability index: 3.14 ± 0.13
pdr5∆
  protein stability index: 3.08 ± 0.08
san1∆
  protein stability index: 3.12 ± 0.069
ubr1∆
  protein stability index: 3.24 ± 0.076

## LNISGEFFRNKLKYHDF [RPL16A]
doa10∆
  protein stability index: 1.32 ± 0.13
ubr1∆
  protein stability index: 1.12 ± 0.1

## GNVLLNATVVDSFKYEP [YLR335W/NUP2]
doa10∆
  protein stability index: 2.92 ± 0.074
pdr5∆
  protein stability index: 3.02 ± 0.1
san1∆
  protein stability index: 3.05 ± 0.081
ubr1∆
  protein stability index: 2.62 ± 0.17

## KFPETSYPILNESSTFL [SIN4]
doa10∆
  protein stability index: 2.47 ± 0.04
pdr5∆
  protein stability index: 2.71 ± 0.034
san1∆
  protein stability index: 2.58 ± 0.042
ubr1∆
  protein stability index: 2.64 ± 0.032

## FLKLANGGKFSKSNLIH [RGR1]
doa10∆
  protein stability index: 2.65 ± 0.049
pdr5∆
  protein stability index: 2.55 ± 0.061
san1∆
  protein stability index: 2.87 ± 0.077
ubr1∆
  protein stability index: 2.79 ± 0.059
